The values below come from PMC7907199, “Prokaryotic Argonaute from Archaeoglobus fulgidus interacts with DNA as a homodimer” (Scientific Reports, 2020).

The target of data set [1] is AfAgoΔ (dimerization mutant of AfAgo lacking residues 296–303) (Archaeoglobus fulgidus) (UniProt O28951).
A further data set deals with T1, WT AfAgo (Archaeoglobus fulgidus (ATCC 49558), UniProt O28951 1-427).
T1 sequence: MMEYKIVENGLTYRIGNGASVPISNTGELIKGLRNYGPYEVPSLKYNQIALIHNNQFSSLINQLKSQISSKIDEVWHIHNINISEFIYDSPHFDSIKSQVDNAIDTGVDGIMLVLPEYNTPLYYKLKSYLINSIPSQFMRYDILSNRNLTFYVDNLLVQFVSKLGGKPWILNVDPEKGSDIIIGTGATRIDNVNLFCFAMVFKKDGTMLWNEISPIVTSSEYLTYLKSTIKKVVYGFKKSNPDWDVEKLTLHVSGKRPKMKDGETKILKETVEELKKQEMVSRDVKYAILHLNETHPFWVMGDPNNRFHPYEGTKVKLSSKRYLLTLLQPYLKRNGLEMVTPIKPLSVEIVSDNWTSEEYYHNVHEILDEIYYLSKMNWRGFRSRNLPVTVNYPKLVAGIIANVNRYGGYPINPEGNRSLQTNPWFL
In words: SEC-MALS; 5 mM MgCl2; 5 uM protein monomer, 5 uM duplex; mostly 2:2 protein:DNA; SEC-MALS of complexes: 15 mM Tris-HCl pH 8.0, 150 mM NaCl, 5 mM MgCl2, 0.5 mM DTT, 0.04% NaN3; EMSA, AFM and smFRET buffers not in the material. Particulars: protein: recombinant; chain copies: 2; blunt; self-complementary, 2 copies of the strand. (In general: In gel filtration, larger molecules generally elute earlier.)

The target in data set [2] is T2, AfAgoΔ (dimerization mutant) (Archaeoglobus fulgidus (ATCC 49558), UniProt O28951 1-427, del296-303).
T2 sequence: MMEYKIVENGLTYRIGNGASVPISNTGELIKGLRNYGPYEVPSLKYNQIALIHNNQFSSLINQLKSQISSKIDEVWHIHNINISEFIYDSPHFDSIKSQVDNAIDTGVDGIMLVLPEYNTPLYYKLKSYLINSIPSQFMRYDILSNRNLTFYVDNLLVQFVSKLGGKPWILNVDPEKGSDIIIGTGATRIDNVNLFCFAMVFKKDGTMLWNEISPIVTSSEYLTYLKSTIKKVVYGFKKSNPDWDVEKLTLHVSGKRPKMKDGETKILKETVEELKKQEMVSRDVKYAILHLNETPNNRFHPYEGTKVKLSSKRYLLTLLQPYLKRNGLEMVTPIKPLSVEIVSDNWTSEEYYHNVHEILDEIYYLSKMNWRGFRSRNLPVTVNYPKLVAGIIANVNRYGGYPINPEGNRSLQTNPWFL
The data set is described as follows: SEC-MALS; 5 mM MgCl2; 5 uM protein monomer, 5 uM duplex; major peak 1:1 protein:DNA; SEC-MALS of complexes: 15 mM Tris-HCl pH 8.0, 150 mM NaCl, 5 mM MgCl2, 0.5 mM DTT, 0.04% NaN3; EMSA, AFM and smFRET buffers not in the material. Particulars: protein: recombinant; blunt; self-complementary, 2 copies of the strand.

Data set [3] deals with the molecule itself. In words: SEC-MALS; apo proteins without nucleic acids; 1.0 mg/mL (20 µM monomer), 2.0 mL injected; HiLoad 16/60 Superdex 200; 100 mM Tris–HCl pH 8.0, 1000 mM NaCl, 0.04% NaN3; dimer to monomers.
Data set [4] deals with the molecule itself. In words: cell-based or functional assay.

In the case of “AfAgoΔ (dimerization mutant of AfAgo lacking residues 296–303) (from UniProt O28951 1-427) (natural protein)”, the AFM: DNA loops, % of protein–DNA complexes in data set [1] was 26%.

B1: MZ-1289 oligoduplex (dsDNA)
DNA 1: ATTGTACGTACAAT
DNA 2: ATTGTACGTACAAT
modifications: 5'-phosphate
As to B1, the binding result (with WT AfAgo; in data set [2]) was “binds” each time.

B2: WT AfAgo (prokaryotic Argonaute from Archaeoglobus fulgidus, full-length wild type) (natural protein, UniProt O28951 1-427, looked up)
chain: T1 sequence
notes: The printed theoretical Mw of the monomer in the assays (50.8 kDa) is 49.2 kDa plus the 1.63 kDa tag, so the tag was on the protein; In some assays the protein carried a 5'-phosphorylated DNA duplex (MZ-1289) or a long DNA fragment; also called apo-AfAgo; source: E. coli BL21(DE3), purified (Ni2+ HiTrap chelating, RNase A/T1 treatment, HiTrap Heparin, Superdex 200)
By stoichiometry N is commonly meant a count of units in the complex or per binding partner. Consider B2, for which the “stoichiometry N” value in data set [3] came to 2. The “smFRET in solution: DNA looping efficiency K (ratio of looped to unlooped dual-labelled 569 bp DNA) against WT AfAgo concentration; maximum at 2 nM, lower at higher concentrations” value in data set [4] came out at 2.5.
